This assay deals with T1, NADPH-cytochrome P450 reductase (human (endogenous in human liver microsomes)) (UniProt P16435).
T1 sequence: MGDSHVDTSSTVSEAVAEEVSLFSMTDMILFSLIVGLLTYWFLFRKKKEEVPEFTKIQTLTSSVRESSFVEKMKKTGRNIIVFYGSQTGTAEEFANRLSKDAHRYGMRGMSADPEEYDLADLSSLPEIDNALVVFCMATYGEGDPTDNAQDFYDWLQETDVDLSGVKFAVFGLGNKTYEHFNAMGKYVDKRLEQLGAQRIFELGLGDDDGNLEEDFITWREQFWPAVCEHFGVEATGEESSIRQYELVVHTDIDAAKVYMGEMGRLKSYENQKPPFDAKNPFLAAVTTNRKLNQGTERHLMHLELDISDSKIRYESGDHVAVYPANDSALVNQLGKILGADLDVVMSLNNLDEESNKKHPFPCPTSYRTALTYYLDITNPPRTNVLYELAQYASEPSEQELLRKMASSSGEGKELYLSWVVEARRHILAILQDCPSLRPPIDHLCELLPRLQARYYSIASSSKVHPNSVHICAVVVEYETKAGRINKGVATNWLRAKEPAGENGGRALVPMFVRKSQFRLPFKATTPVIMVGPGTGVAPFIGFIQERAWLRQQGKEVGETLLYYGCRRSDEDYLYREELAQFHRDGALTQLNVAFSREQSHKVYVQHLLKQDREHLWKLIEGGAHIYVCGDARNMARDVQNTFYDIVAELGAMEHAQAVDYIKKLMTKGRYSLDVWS

Turning to “C-terminally His-tagged and N-terminally truncated Δ3–20 CYP2E1 modified with benzophenone-4-maleimide (BPM) or 4-(N-succinimidylcarboxy)benzophenone (BPS) (from UniProt P05181 1-493) (enzyme)”, the Vmax of 7-EFC deethylation by CYP2E1-BPM incorporated into insect cell microsomes with cDNA-expressed human CPR and cytochrome b5 (SS(CPR+b5)2E1-BPM), normalised per CPR came to 0.104 s⁻¹; the Vmax of 7-EFC deethylation by CYP2E1-BPS incorporated into insect cell microsomes with cDNA-expressed human CPR and cytochrome b5 (SS(CPR+b5)2E1-BPS), normalised per CPR worked out at 1.51 s⁻¹.

Values taken from paper PMC8869672.
